What was measured:
Experiment in all cases: SPR, KD relative to WT C2;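 further: biacore SPR at 37 °C, anti-C2 mAbs captured via immobilised goat anti-human IgG, C2 alanine or serine surface mutants as analytes, 1:1 model fitted, double-referenced sensograms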
human C2 L701A = target: T1, human C2 L701A (human, UniProt P06681 21-752)
T1 sequence: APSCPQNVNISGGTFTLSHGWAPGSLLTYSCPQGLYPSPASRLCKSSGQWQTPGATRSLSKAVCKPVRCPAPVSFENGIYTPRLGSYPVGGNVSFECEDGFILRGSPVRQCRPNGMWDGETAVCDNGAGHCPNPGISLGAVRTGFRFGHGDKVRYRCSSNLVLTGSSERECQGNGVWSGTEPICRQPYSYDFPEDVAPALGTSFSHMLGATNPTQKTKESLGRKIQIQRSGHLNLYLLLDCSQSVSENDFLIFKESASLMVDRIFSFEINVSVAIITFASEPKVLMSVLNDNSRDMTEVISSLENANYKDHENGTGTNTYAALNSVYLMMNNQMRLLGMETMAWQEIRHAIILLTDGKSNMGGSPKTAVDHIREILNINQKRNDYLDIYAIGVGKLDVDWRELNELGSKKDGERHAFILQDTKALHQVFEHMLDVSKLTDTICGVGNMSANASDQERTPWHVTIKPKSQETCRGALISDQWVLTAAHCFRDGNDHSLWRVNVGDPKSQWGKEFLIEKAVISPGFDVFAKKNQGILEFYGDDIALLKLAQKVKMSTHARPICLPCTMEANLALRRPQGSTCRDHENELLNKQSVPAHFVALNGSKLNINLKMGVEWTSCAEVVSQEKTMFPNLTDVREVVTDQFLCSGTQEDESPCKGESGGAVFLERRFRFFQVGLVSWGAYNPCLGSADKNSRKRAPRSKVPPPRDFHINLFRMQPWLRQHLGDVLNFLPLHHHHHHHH

human C2 A470S = target: T2, human C2 A470S (human, UniProt P06681 21-752)
T2 sequence: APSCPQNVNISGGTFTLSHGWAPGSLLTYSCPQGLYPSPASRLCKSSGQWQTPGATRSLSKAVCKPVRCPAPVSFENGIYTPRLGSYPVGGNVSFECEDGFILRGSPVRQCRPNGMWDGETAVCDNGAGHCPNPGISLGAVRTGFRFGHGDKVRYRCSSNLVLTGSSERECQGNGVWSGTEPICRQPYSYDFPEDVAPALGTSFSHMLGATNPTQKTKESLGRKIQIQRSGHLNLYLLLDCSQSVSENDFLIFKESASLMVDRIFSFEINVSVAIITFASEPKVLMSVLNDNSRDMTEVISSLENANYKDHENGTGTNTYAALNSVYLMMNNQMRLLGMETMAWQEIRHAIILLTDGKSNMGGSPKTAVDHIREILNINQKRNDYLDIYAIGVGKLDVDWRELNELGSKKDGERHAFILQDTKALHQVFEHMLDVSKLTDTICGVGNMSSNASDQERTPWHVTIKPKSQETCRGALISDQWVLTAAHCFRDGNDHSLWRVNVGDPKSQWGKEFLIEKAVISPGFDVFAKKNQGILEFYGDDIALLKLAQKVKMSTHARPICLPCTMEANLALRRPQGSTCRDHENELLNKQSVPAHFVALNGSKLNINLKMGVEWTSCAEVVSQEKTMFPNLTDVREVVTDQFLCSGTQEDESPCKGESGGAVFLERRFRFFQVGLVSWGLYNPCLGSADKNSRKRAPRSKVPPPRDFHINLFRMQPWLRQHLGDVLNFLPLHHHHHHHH

human C2 H435A = target: T3, human C2 H435A (human, UniProt P06681 21-752)
T3 sequence: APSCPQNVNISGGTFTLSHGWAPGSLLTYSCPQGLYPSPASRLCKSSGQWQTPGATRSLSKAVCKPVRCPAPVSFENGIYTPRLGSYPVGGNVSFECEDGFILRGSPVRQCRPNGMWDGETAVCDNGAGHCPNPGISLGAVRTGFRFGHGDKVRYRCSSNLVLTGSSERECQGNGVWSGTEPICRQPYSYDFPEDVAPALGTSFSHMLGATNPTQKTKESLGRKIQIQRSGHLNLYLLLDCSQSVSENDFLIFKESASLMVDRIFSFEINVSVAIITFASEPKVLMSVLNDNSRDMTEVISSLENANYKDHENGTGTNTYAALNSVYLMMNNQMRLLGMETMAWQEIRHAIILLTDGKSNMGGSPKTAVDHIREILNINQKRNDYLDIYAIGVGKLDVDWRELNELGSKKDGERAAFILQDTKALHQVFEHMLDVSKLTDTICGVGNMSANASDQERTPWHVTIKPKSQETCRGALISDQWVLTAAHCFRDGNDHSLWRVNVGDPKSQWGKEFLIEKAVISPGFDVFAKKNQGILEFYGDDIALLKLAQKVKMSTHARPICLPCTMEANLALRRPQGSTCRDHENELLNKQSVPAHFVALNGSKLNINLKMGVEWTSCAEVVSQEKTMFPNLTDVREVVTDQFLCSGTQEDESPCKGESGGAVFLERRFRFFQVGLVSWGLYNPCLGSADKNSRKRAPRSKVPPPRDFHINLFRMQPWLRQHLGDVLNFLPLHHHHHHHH

human C2 N327A = target: T4, human C2 N327A (human, UniProt P06681 21-752)
T4 sequence: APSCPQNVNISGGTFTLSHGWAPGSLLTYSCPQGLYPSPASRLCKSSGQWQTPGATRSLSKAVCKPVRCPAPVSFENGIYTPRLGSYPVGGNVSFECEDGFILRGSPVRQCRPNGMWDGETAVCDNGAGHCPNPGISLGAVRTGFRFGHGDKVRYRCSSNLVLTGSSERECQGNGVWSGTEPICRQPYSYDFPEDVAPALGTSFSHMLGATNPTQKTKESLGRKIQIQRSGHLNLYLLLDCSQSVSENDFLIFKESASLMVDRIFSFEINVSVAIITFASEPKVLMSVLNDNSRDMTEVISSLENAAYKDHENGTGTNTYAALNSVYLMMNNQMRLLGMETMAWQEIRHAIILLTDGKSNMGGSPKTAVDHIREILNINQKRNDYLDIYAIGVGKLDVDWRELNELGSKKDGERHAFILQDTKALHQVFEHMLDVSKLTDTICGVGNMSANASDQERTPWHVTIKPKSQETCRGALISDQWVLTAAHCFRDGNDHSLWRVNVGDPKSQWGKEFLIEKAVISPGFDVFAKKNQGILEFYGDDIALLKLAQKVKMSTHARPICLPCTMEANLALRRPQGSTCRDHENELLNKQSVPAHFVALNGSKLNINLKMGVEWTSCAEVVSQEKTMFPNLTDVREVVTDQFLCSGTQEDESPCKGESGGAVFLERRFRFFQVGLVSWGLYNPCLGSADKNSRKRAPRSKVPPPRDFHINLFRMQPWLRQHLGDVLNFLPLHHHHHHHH

B1: RF16-226 (antibody, human IgG4 S228P, lambda)
heavy: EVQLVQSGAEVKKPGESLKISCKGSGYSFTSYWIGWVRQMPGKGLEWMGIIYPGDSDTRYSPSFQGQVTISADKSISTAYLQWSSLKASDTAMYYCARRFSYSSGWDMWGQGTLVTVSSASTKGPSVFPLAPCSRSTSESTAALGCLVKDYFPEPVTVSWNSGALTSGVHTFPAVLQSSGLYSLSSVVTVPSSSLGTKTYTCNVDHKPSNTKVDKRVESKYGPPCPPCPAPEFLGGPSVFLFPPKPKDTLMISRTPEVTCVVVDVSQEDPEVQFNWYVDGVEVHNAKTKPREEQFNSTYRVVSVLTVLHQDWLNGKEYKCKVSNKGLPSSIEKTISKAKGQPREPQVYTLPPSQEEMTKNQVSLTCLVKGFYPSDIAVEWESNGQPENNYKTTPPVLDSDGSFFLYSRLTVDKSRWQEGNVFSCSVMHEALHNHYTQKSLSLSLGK
light: SYELTQPPSVSVSPGQTARITCSGDALTSKYVAWYQQKSGLAPLLVIYEDTRRPSGIPAKFSGSSSGSVATLTISGAHGDDEADYYCYSTDASGHQRVFGGGTKLTVLSQPKAAPSVTLFPPSSEELQANKATLVCLISDFYPGAVTVAWKADGSPVKAGVETTKPSKQSNNKYAASSYLSLTPEQWKSHRSYSCQVTHEGSTVEKTVAPTECS
notes: pH-dependent anti-C2 antibody from a phage display library; also called WT
Fold diff (human C2 L701A): 16 fold | Fold diff (human C2 A470S): 1 fold | Fold diff (human C2 H435A): 2 fold | Fold diff (human C2 N327A): 7 fold
